# Experimental data taken from the nanobody polyreactivity screen of Harvey et al. (2022).
# Assay: yeast display, Sf9 membrane polyspecificity reagent, FACS + sequencing; frameworks hold sequencing errors
# How it was run: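 Nanobodies came from a synthetic yeast display library in Saccharomyces cerevisiae BJ5465, induced with galactose for 36–48 hours and stained for 1 hour at 4 °C with 10% biotinylated, detergent-solubilized Sf9 membrane reagent. Cells were enriched on streptavidin microbeads and then FACS-sorted, with low and high (top ~1%) gates set on anti-HA fluorescence for expression and streptavidin fluorescence for reagent binding. Each polyreactivity label reflects the gate a clone came from. Genes were amplified by colony PCR, sequenced by MiSeq 2 × 250 and filtered by CDR length.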
row,Sequence,polyreactivity (PSR sort gate)
1,QVQLVESGGGLVQAGGSLRLSCAASGITFEGYAMGGYRQAPGKERELVAAIRSSGTSTYYADSVKGRFTISRDNAKNTVYLQMNSLKPEDTAVYYCNRARSSSLYDYWGQGTQVTVSS,low polyreactivity
2,QVQLVESGGGLVQAGGSLRLSCAASGSIFAHYTMGWYRQAPGKERELVAAISGSGGSTYYADSVKGRFTISCDNAKNTVYLQMNSLKPEDTAVYYCNKRYRPVGPYDYWGQGTQVTVSS,high polyreactivity
3,QVQLVESAGGLVQAGGSLRLSSAASGRIFKYNAMGWYRQAPGKERELVAAISSSGARTYYADSVKGRFTISRDNAKNTVYLQMNSLKPEDTAVYYCAVYYYDFTSTEYGYWGLGTQVTVSS,high polyreactivity
4,QVQLVETGGGLVQAGGSLRLSCAASGSIFYVYAMGWYRQAPRKERELVAAINTSGGSTYADSVKGRFTISRDNAKNTDYLQMNSLKPEDTAVYYCAADGYYEYTWGEYDSWGQGTQVTVSS,low polyreactivity
5,QVQLVESGGGLVQAGGSLRLSCAASGFTFQWYAMGWYRQAPGKERELVAGITSGASTNYADSVKGRFTISRDNAKNTVYLQMNSLKPEDTAVYYCAARRWREGARYSYWGQGTQVTVSS,high polyreactivity
6,QVQLVESGGGLVQAGGRLRLSCPASGRTFRGYARGWYRQAPRKERELLAAITSGGSTNYADSVKGRFTISRDNAKNTVYLQKKSLKPEDTAVYYCAADSWFYGGEYKLGYYWGQGTQVSVSS,low polyreactivity
7,QVQLVESGGRLVQAGGSLRLSCAASGRILRQYTMGWYRQAPGKERELVAGITGSDSSTYYADSVKGRFTISRDNAKNTVYFQMNSLKPEDRAVYYCGTYRWGTLASIYYYWGQGPQVTVSS,low polyreactivity
8,QVQLVESGGGLVQAGGSLRLSCAASGRTIYYYVMGWYRQAPGKERQLVAAISASGGSTRYADSVKGRFTISRDNAKNTVYLQMNSLKPEDTAVYYCAASRRYGGYRFDYWGQGTQVTVSS,high polyreactivity
9,QVQLKDSGCGLVQAGGSLRLSCAASGTISYRYRMGWYREAPRKELELVAGISFGSITYYADSVKGRFTISRDNAKNTVYLQMNSLKPVDIAVYYCAVYQKSYRFFPYWGQGTQVTVSS,high polyreactivity
10,QVQLVESGGGLVQAGGSLRISCAASGSIFHTYAMGWYRQAPGKERELVAAITVSGGDTYYADSVKGRFTISRDNAKNTVYLQMHSLKPEDTAVYYCAVDTTTSYTVEYDYWGQGTQVTVSS,low polyreactivity
11,QVQLVESGGGLVQAGGSLRLSCAASGSTLEFNARGWSRQAPGKERELVAVINRSDGSTYYADSVKGRFTISRDNAKNTVYLQMNSLKPEDTAVYYCAADRHQVSVISTEDYWGQGTQVTVSS,low polyreactivity
12,QVQLVESGGGLVQAGGSLRLSCAPSGIFYKYAMGWYRQAPGKERELVAAISISGTSTYYADSVKGRFTISRDNAKNTVYLQMNSLKPEDTAVYYCAADEFYFAPPVAGENYWGQGTQVTVSS,low polyreactivity
13,QVQLVESGGGLVQAGGSLRLSCAASGFIFYYNTMVWYRQAPGKERELVASITWSGDTTYYADSVKGRFTISRDNAKNTVYLQMNSLKPEDTAVYYCAAVHYYPYRRYDYWGQGTQVTVSS,low polyreactivity
14,QVQLVESGGGLVQAGGSLRLSCAASGRIFFYNAMGWYRQAPGKERELVAGISRSGTSTYYADSVKGRFTISRDNAKNTVYLQMNSLKPEDTAVYYCAADAWSVILWREMDYWGQGTQVTVSS,low polyreactivity
15,QVQLEESGGRLVQEGGSLRLSCAASGYIFQGNAMGWYTPAPGKERELVAAITSSGGRTYYADSVKGRFTISRDNAKNTVYLQMHSLKPEDTAVYYCAAKSVRRGGGEYWGEGTQVTVSS,high polyreactivity
16,QVQLVESGGGLVQAGGSLRLSCAASGRTFTYYAMGWYRPAPGKERELVASISTTGRTYYADSVKGRFTISRDNAKNTVYLQMNSLKPEDTAVYYCATRSRYYYDYWGQGTQVTVSS,high polyreactivity
17,QVQLVESVGGLVQAGGSLRLSCAASGRTFDGNAMGWYRQAPGKERELVAAIRFNGSTTYYADSVKGRFTISRDNSKNTVYLQMNSLKPEDTAVYYCNKFEGALGGMDYWGQGTQVTVSS,low polyreactivity
18,QVQLVESGGGLVQAGGSLRLSCAASGSTFVKNTMGWYRQAPGKERELVAAIRSSGGSTYYADSVKGRFTISRDNAKNTVYLQMNSLKPEDTAVYYCAAPRVSVHGGGYWGQGTQVTVSS,high polyreactivity
19,QVQLVESGGGLVQAGGSLRLSCAASGSIFRSYAMGWYRQAPGKERELVAAISSRSGSTYYADSVKGRFTISRDNAKNTVYLQMISLKPEDTAVYYCAAQHRHSYGYWGQGTQVTVSS,high polyreactivity
20,QVQLVESGGGLVQAGGSLRLSCAASGSIFRYYVMGWYRQAPGKERELVASISYSVGRTYYADSVKGRFTISRDNAKNTVYLQMNSLKPEVTAVYYCAADRYWPYYSAYYTSYRMDYWGKGTQVTVSS,high polyreactivity
21,QVQLVESGGGLVQAGGSLRLSCAASGRILPSNAMGWYRQAPGKERELVAGITSGGSTDYADSVKGRFTISRDNAKNTVYLQMNSLKPEDTAVYYCAAHPAYRDSWGEYDYWGQGTQVTVSS,low polyreactivity
22,QVQLVESGGGLFQAGGSLRLSSAASGIIFGYYSLGWYRQAPGKERELVAAINQDGSSTYYADSVKGRFTISRDNAKNTVYLQMNSLNPEDTAVYYCNARGVPRQDDRMGYWGQGTQVTVSS,low polyreactivity

row,Sequence,polyreactivity (PSR sort gate)
1,QVQLVETAAGLVKSGGSLPLSCAASGRIFKRYAMGWYRQAPGQARELVATINLSCGSTYYADSVKGRFTISRDNAKNTGYLQMNSRKPEDTAVYYCAYDAAGAPEGPYDYWGQGTQVTVSS,high polyreactivity
2,QVELVESGGGLVQAGGSLRLSCAASGITLRHYTMGWYRQAPGKVRELVATISRSGGRTYYADSVKGRFTISRDIAKNTVYLQMNSLKPEDTAFYYCARQFWRHWYGYWGQGTQVTVSS,high polyreactivity
3,QVQLVESGGGLVQAGGSLRLSCAASGRTFGWNAMGWYIQAPGKERELVAAITSGGSTSYADSVKGRFTISRDNEKNTVYLQMNCLKPEDTAVYYCAAYLGIYSRVNYWGQGTQVTVSS,low polyreactivity
4,QVQLVESGGGLVQAGGSLRLSCAASGSTFEGNAMGWYRQAPGKERELVAAISSGGRTYYADSVKGRFTISRDNAKNTVYLQMNSLKPEDTAVYYCAAYVRRGFDWGQGTQVTVSS,high polyreactivity
5,QVQLVQSGGGLVQAVGSLRLICADSGSIFVPNAMGWYRQALGKERELVAAITYSGVDTYYADSVKGRFTISRDNAKNSVYLQMNSLKPEDTAVYYCAADNGRVGYDYWGLGTQVTVSS,low polyreactivity
6,QVQLVESGGGLVQAGGSLRLSCAASGRTFLGYAMGWYRQAPGKERELVAAISYSGSSTYYADSVKGRFTITRDNAKITVYLQMNSLKPEDTAVYYCAAQFFFLFDYWGQGTQVTLSS,low polyreactivity
7,QVQLVESGGGLVQAGGSLRLSCAASGFIFSGYAMGWYRQAPGKERELVAAIRWSTGSTYYADSVKGRFTISRDNAKNTVYLQMNSLKPEDTAVYYCNAYRYQWAQSTEYDYWGQGTQVTVSS,high polyreactivity
8,QVQLVESGGGLVQAGGSLRLSCAASGRTFQYNAMGWNRQAPGKERELVAAISWSDGITYYADSVKGRFTISRDNAKNTVFLQMNSLKPEDTAVYYCAAEGYGLSYYFPYDYWGQGTQVTVSS,high polyreactivity
9,QVQLVESGGGLVQAGGSLRLSCAASGFIFTKYTMGWYRQAPGKERELVAAITGRGTSTYADSVKGRFTISRDNAKNTVYLQMNSLKPEDTAVYYCAAVGWFADFLFSDINGYYWGQGTQVTVSS,low polyreactivity
10,QVQLVESGGGLVQAGGSLRLSCAASGITFYGYAMGWYRQAPGKERELVAAISESGGSTYYADSVKGRFTISRDNAKNTVYLQMNSLKPEDTAVYYCNAESYSTWSFGHRYEYDYWGQGTQVTVSS,low polyreactivity
11,QVQLVESGGGLVQAGGSLRLSCAASGSIFTTYTMGWYRQAPGKERELVAAITAGGGTTYYADSVKGRFTISRDNAKNTVYLQMNSLKPEDTAVYYCAAANSFYYIATGEYDYWGQGTQVTVSS,high polyreactivity
12,QVQLVESGGGLVHAGGSLSLSCAASGFILGVYAMGWYRQEPGKERELVAAITFTGASTYYADSVKGRFTLSRDNAKNTVYLQMNSLKPEDTAVNYCNKSSAYYRYEYWGQGTQVTVSS,low polyreactivity
13,QVQLVESGGGLVQAGGSLRLSCAASGRTFSYNAMGWYRQAPGKERELVAAITWRGSTTYYADSVKGRFTISRDNAKNTVYLQMNSLKPEDTAVYYCAADTGQPYILDYWGQGTQVTVSS,low polyreactivity
14,NVQLVESGGGLVQAGGSLRLSCAASGRTFNGYAMGWYRQAPGKERDLVASISWSGGRTYYADSVKGRFTISRDNAKNTVYLQMNSLKPEDTAVYYCAATFVNVVGYDYWGQGTQVTVSS,high polyreactivity
15,QVQLVESGGGLVQAGGSLRLSCAASGLTFASYAMGWYRQAPGKERELVAVISASGGSTYYADSVKGRFTISRDNAKNPVYLQMNSLKPEDTAVYYCAARHSLYGYWGQGTLVTVSS,high polyreactivity
16,QVQLVESGGGIVQAGGSLRLSCAASGFTFWSYAMGWYRPAPGKERELVAAISRGGSTSYADSVKGRFTISRDNAKNTVYLQLNSLKPEDTAVYYCAVVRARAYVYHGFYWGQGTQVTVSS,high polyreactivity
17,QVHLVESGGCLVQAGGSLRLSSAASASIFYYNTMGWYIQAPGKERELVATNSSDGGTNYADSVKGRFTISRDNAKNTVYLQMNSLKPEDTAVYYCAAAVSPYSYWPGFDYWGQGTQVTVSS,low polyreactivity
18,QVQLVESGGGLVQAGGSLRLSCAASGFIFPANAMGWYRQAPGKEREFVAAISRSGGTTYYADSVKGRFTISRDNAKNTVYLQMNSLKPEDTAVYYCAARYAIGPGYDYWGQGTQVTVSS,high polyreactivity
19,QVQLVESGGGLVQAGGSLRLSCAASGNTFHSNAMGWYRQAPGKERELVAAITPSDGDTYYADSVKGRFTISRDNAKNTVYLQMNSLKPEDTSVYYCAAEDDPGEYEYWGQGTQVTVSS,low polyreactivity
20,QVQLVESGGGLVQAGGSLRLSCAASGRIIFRNAMGWYRQAPGKERELVAAISTSGGSTYYADSVKGRFTISRDNAKNTVYLQMNSLKPEDTAVYYWSKQFNSSPRRYYWGQGTQVTVSS,high polyreactivity
21,QVQLVESGGGLVQAGGSLRVSCAASGSTFPSNAMGWYRQAPGKERELVATITSAGGGTYYADSVKGRFTISRDNAKNSVYLQMNSLKAEDTAVYYCNADGPAGDAFDYWGPGTQVTVSS,low polyreactivity
